In patent EP4644419A1 (Hangzhou Zhongmeihuadong Pharmaceutical Co., Ltd., dated 2025):

B1: C13 (antibody, human IgG1, kappa, V domains shown)
VH: EVQLQQSGPELVKPGASVKISCKASGYTFTDYFMNWVKQSHGKSLEWIGDINPNNGSPNYNQKFKGRATLTVDKSSSTAYMELRSLTSEDSAVYYCASGYFDVWGTGTTVTVSS
VL: DIVMTQSPSSLSVSAGEKVTMSCKSSQSLLNSGTQKNYLAWYQQKPGQPPKLLIYGASTRESGVPDRFTGSGSGTDFTLTISSVQAEDLAVYYCQNDHSYPWTFGGGTKLEIKR
B2: C41 (antibody, human IgG1, kappa, V domains shown)
VH: EVQLQQSGPELVKPGASVKISCKASGNTFTDYYINWVKQSHGKSLEWIGDIEPNNGGTNYNQKFKGKATLTVDKSSSTAYMELRSLTSEDSAIYYCATLYFDYWGQGTTLTVSS
VL: DIVMTQSPSSLSVSAGEKVTMSCKSSQSLLNSGNQKNYLAWYQQKPGQPPKLLIYGASTRESGVPDRFTGSGSGTDFTLTISSVQAEDLAVYYCQNDHSYPFTFGSGTKLEIKR
B3: C11 (antibody, human IgG1, kappa, V domains shown)
VH: EVQLQQSGPELVKPGASVKISCKASGYTFTDYFMNWVRQSHGKSLEWIGDIHPNNGSPNYNQKFKGKATLTVGKSSSTAYMELRSLTSEDSAVYYCATGYFDVWGTGTTVTVSS
VL: DIVMTQSPSSLSVSAGEKVTMSCKSSQSLLNSGNQKNYLAWYQQKPGQPPKLLIYGASTRESGVPDRFTGSGSGTDFTLTISSVQAEDLAVYYCQNDHSYPWTFGGGTKLEIKR
B4: C4 (antibody, human IgG1, kappa, V domains shown)
VH: EVQLQQSGPELVKPGASVKISCKASGYTFTDYFMNWVKQSHGKSLEWIGDIIPNNDSPNYNQKFKGKATLTVDKSSNTAYMELRSLTSEDSAVYYCASGYFDVWGTGTTVTVSS
VL: DIVMTQSPSSLSVSAGEKVTMSCKSSQSLLNSGNQKNFLAWYQQKPGQPPKLLIYGTSTRESGVPDRFTGSGSGTDFTLTISSVQAEDLAVYYCQNDHSYPWTFGGGTKLEIKR
B5: C1 (antibody, human IgG1, kappa, V domains shown)
VH: QVHLQQSGPELVKPGASLKISCKASGYTFTDYYLNWVKQRPGQGLEWIGWIFPGSESTFYNEKFKGKATLTVDKSSSTAYMLLNSLTSEDSAVYFCTRDGGLRGPFDYWGQGTTLTVSS
VL: DIQLTQSPSSLSASLGGKVTITCKASQDINKYIAWCQHKPGKGPRLLIHYTSTLHPGIPSRFSGSGSGRDYSFSISNLEPEDSATYYCLQYDYLLTFGGGTKLEIKR
B6: C3 (antibody, human IgG1, kappa, V domains shown)
VH: QVQLQQSGPELVKPGASVKISCRSSGYTFTDYYINWVKQRPGQGLEWIGWIFPGSDYTYYNEKFKGKATLTVDKSSTTAYMLLSSLTSEDSAVYFCARDGGLRGPFDYWGQGTTLTVSS
VL: DIQMTQSPSSLSASLGGKVTITCKASQDINKYIAWYQQKPGKGPRLLIHYTSTLQPGIPSRFSGSGSGRNSSFSISNLEPEDIATYYCLQYDNLHTFGGGTKLEIKR
B7: C14 (antibody, human IgG1, kappa, V domains shown)
VH: QVQLQQPGAELVRPGTSVKLSCKASGNTFTSYWMHWVKQRPGQGHEWIGVIDASDSNTKYNQKFKGKATLTVDTSSSTAYMQLSSLTSEDSAVYYCARYYSGSSYGLDYWGQGTTLTVSS
VL: DIQMTQTASSLSASLGDRVTISCRASQDISNYLNWYQQKPDGTVKLLIYYTSRLHSGVPSRFSGSGSGTDFSLTITHLEQEDIASYFCQQGNMFPPTFGGGTKLEIKR
B8: C12 (antibody, human IgG1, kappa, V domains shown)
VH: EVQLVASGGGLVKPGGSLKLSCAASGFTFSDYYMYWVRQTPEKRLEWVATISDGGGYTYYPDSVKGRFTISRDNDRNSLYLQMSSLKSEDTAMYYCGREDLWGQGTSVTVSS
VL: DIQMTQSPSSLSASLGERVSLTCRASQDIGSSLNWLQQEPDGTVKRLIYATSRLDSGVPKRFSGSRSGSDYSLTISSLESEDFVDYYCLQYASFPYTFGGGTKLEIKR
B9: C8 (antibody, human IgG1, kappa, V domains shown)
VH: EVQLVASGGGLVKPGGSLKLSCAASGFTFSDYYMFWVRQTPEKRLEWVATISDGGGYIYYPDSVKGRFTISRDNDRNSLYLQMSSLKSEDTAIYYCGREDFWGQGTSVTVSS
VL: DIQMTQSPSSLSASLGERVSLTCRASQDIGRSLNWLQQEPDGSVRRLIYATSRLDSGVPKRFSGSRSGSDYSLTISSLESEDFVDYYCLQYASFPYTFGGGTKLEIKR
B10: C19 (antibody, human IgG1, kappa, V domains shown)
VH: EVQLVESGGGLVKPGGSLKLSCAASGFTFSDYYMYWVRQTPEKRLEWVATISDAGGYTYYPDSVKGRFTISRDNARNSLYLQMSSLKSEDTAMYFCGREDLWGQGTSVTVSS
VL: DIQMTQSPSSLSASLGERVSLTCRASQDIGYSLNWLQQEPDGSVRRLIYATSRLDSGVPKRFSGSRSGSDYSLTISSLESEDFVDYYCLQYASFPYTFGGGTKLEIKR
B11: C20 (antibody, human IgG1, kappa, V domains shown)
VH: EVQLVESGGGLVKPGGSLKLSCAASGFTFSDSYMCWVRQTPEKRLEWVATISDAGGYTYYPDSVKGRFTISRDNDRNNLYLQMSGLKSEDTAVYYCGREDLWGQGTSVTVSS
VL: DIQMTQSPSSLSASLGERVSLTCRASQDIGRSLNWLQQEPDGTIKRLIYATSRLDSGVPKRFSGSRSGSDYSLTISSLESEDFVDYYCLQYASSPYTFGGGTKLEIKR
B12: C18 (antibody, human IgG1, kappa, V domains shown)
VH: EVQLVESGGGLVKPGGSLKLSCAASGFTFSDYYMYWVRQTPEKRLEWVATISDGGGFIYYPDSVKGRFTISRDNDRNSLYLLMSSLKSEDTAMYFCGREDLWGQGTSVTVSS
VL: DIQMTQSPSSLSASLGERVSLTCRASQDIGRSLNWLQQGPDGTVKRLIYATSRLDSGVPTRFSGSRSGSDYSLTISSLESEDFVDYYCLQYASFPYTFGGGTKLEIKR
B13: C24 (antibody, human IgG1, kappa, V domains shown)
VH: QVQLKQSGPGLVQPSQNLSITCTVSGFSLTGYGINWVRQSPGKGLEWLGVIWSGGNTEYNAAFRSRLSISKDTSKSQVFLKMNSLQADDTAIYSCARDSTGLYAMDYWGPGTSVTVSS
VL: DLQMTQTTSSLSASLGDRVTISCRTSQDISNFLNWYQQKPDGPLKLLIYYTSRLHSGVPSRFSGSGSGTDYSLTISNLEQEDIATYFCQQGYMLPPTFGGGTKLEIKR

Tests used:
[1] = target: T1, human CD112R antigen protein huCD112R-His (Acro Biosysterm, PVG-H52H4) (human, UniProt Q6DKI7 41-171); experiment: ELISA, huCD112R-His coated on plate
T1 construct: purchased; also called human antigen protein; not shown: His tag
T1 sequence (looked up): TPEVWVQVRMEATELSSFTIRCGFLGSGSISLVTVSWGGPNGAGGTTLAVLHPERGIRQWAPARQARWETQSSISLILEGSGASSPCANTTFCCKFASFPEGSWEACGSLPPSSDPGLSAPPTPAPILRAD

[2] = target: T2, monkey antigen protein (monkey CD112R, Uniprot ID: A0A2K5WVV8) (monkey, UniProt A0A2K5WVV8 41-171); experiment: ELISA, monkey antigen protein (as Example 6.1)
T2 sequence: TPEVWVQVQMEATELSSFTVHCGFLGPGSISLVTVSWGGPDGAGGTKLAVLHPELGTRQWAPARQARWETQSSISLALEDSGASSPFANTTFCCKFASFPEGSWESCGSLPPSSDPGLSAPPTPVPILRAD

[3] = target: T3, human CD112R on antigen-specific CD8+ T cells (human, UniProt Q6DKI7 1-326); experiment: cell-based or functional assay
T3 sequence (looked up): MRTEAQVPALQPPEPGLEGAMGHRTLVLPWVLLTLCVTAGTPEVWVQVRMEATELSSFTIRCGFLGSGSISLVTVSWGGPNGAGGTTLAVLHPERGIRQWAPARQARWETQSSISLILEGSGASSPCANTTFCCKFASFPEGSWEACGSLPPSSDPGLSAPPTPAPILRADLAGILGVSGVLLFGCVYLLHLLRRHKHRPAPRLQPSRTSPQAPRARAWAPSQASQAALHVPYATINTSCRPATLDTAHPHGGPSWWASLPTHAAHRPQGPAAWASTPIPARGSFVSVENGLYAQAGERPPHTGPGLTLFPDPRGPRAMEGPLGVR

[4] = target: T1, human CD112R antigen protein …; experiment: SPR (Biacore X100), antibody captured on Protein A chip, huCD112R-His as analyte, 1:1 Langmuir
[5] = target: T4, human CD112R on GS-J2C/CD112R effector cells (human, UniProt Q6DKI7 1-326); experiment: cell-based or functional assay
T4 sequence (looked up): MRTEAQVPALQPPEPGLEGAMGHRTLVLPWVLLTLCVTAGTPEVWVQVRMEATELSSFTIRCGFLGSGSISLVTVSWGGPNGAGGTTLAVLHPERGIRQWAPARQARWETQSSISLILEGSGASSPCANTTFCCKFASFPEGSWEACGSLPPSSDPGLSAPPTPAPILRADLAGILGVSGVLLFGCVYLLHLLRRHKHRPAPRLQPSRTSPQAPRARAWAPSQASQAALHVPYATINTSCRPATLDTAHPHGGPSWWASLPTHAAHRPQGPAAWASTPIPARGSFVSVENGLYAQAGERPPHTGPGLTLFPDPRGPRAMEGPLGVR

| Binder | EC50 [1] [nM] | EC50 [2] [nM] | IFN-γ(pg/ml) at 0.5µg/ml antibody [3] [pg/mL] | IFN-γ(pg/ml) at 5µg/ml antibody [3] [pg/mL] | IFN-γ(pg/ml) at 50µg/ml antibody [3] [pg/mL] | Kd [4] [nM] | EC50 (Blocking effects of the antibodies, reporter gene method) [5] [µg/mL] |
| --- | --- | --- | --- | --- | --- | --- | --- |
| B1 | 0.065 | 0.059 | 624 | 658 | 767 | 0.0218 | 0.019 |
| B2 | 0.033 | 0.052 | 573 | 751 | 659 | 0.022 | 0.024 |
| B3 | 0.056 | 0.079 | 676 | 747 | 617 | 0.0622 | 0.021 |
| B4 | 0.032 | 0.059 | 663 | 740 | 875 | 0.0141 | 0.024 |
| B5 | 0.075 | 0.116 | 543 | 641 | 755 | 0.905 | 0.045 |
| B6 | 0.046 | 0.118 | 535 | 633 | 755 | 0.181 | 0.04 |
| B7 | 0.052 | 0.067 | 619 | 674 | 759 | 0.0687 | 0.052 |
| B8 | 0.155 | 0.768 | 608 | 678 | 824 | 2.9 | 0.024 |
| B9 | 0.046 | 0.047 | 722 | 783 | 819 | 0.397 | 0.026 |
| B10 | 0.043 | 0.034 | 571 | 744 | 829 | 0.567 | 0.033 |
| B11 | 2.27 | 8.36 | 708 | 835 |  | 0.114 | 0.025 |
| B12 | 0.069 | 0.069 | 748 | 802 |  | 0.206 | 0.034 |
| B13 | 0.048 | 0.169 | 611 | 656 | 733 | 0.0467 | 0.05 |
